In US20040259787A1 (published 2004):

Target: T1, C1q (UniProt P02745 23-245; P02746 28-253; P02747 29-245, radioiodinated (Bolton & Hunter) in the assay of FIG. 2)
T1 construct: mature; Purified native C1q; also called native fluid-phase C1q; radioiodinated C1q
Experiment: solid-phase domain, radioiodinated C1q, low salt
Protocol: Microtitre plates were coated with the N-, P-, C- and CUB-domains and with three controls, cC1qR, BSA and Thioredoxin, (8 mg/ml in 35 mM NaHCO3, 15 mM Na2CO3 pH 9.6) for 2 hr at 37° C. Non-specific interactions were blocked by incubation with 10 mM potassium phosphate, 0.5 mM EDTA pH 7.4 containing BSA (10 mg/ml). Any free —SH groups in the samples, due to the presence of the thioredoxin fusion protein, were blocked by a brief washing step using the phosphate buffer containing 2 mM iodoacetamide. […] Wells were washed three times with phosphate buffer and bound radioactivity eluted with 100 ml 4M NaOH and measured.

T1 sequence (P02745 23-245, chain 1 of 3): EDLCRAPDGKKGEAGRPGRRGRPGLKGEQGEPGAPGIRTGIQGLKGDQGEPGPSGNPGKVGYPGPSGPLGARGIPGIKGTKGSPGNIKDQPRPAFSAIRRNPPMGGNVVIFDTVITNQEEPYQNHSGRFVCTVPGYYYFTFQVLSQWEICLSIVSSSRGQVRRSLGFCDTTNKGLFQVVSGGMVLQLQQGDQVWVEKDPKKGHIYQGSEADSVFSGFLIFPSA
T1 sequence (P02746 28-253, chain 2 of 3): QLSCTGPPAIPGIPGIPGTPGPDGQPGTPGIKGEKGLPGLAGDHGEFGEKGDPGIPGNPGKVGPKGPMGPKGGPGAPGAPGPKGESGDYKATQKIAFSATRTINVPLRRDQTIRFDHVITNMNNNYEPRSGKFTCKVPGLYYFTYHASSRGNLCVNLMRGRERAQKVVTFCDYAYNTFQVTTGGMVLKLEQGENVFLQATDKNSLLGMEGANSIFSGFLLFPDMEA
T1 sequence (P02747 29-245, chain 3 of 3): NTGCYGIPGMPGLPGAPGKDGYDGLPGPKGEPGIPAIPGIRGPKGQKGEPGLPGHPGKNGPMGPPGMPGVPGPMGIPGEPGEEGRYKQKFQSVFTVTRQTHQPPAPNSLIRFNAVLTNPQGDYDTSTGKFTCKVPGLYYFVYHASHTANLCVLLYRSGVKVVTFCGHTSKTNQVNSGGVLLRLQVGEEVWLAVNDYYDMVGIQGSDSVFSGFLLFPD

binding result: no binding
B1: recombinant C-domain of human cC1qR/CRT, thioredoxin fusion protein (other)
chain: DNFGVLGLDLWQVKSGTIFDNFLITNDEAYAEEFGNETWGVTKAAEKQMKDKQDEEQRLKEEEEDKKRKEEEEAEDKEDDEDKDEDEEDEEDKEEDEEEDVPGQAKDEL
notes: not shown: thioredoxin fusion partner from plasmid pTrxfus (Invitrogen), expressed in E. coli
